The text below walks through data of US20210147552A1 (UNIVERSITETET I OSLO, published 2021).

First the molecules themselves.
B2: 33mer α-gliadin peptide (peptide)
peptide: LQLQPFPQPELPYPQPELPYPQPELPYPQPQPF
B3: 12mer DQ2.5-glia-α1a peptide (free) (peptide)
peptide: QLQPFPQPELPY
notes: also called free peptide
B5: R3A2-9F hIgG1 (antibody)
heavy: not shown
light: DIQVTQSPSFLSASVGDRVTITCRASHDISSYLAWYQHKPGKAPKLLIHAASILQSGVPSRFSGSGSGTEFTLTISSLQPEDFATYYCQDLNSYPLFGQGTRLEIKRTVAAPSVFIFPPSDEQLKSGTASVVCLLNNFYPREAKVQWKVDNALQSGNSQESVTEQDSKDSTYSLSSTLTLSKADYEKHKVYACEVTHQGLSSPVTKSFNRGEC
notes: also called mAb R3A2-9F
B6: R4A1-3A (107) hIgG1 (antibody, V domains shown)
VH: QVQLQQSGPGLVKPSQTLSLTCAISGDSVSSNSAAWNWIRQSPSRGLEWLGRTYYRSKWYNDYAVSVKSRITINPDTSKNQFSLQLNSVTPEDTAVYYCARDSSSGWHPYGMDVWGQGTTVTVSS
VL: DIQVTQSPSFLSASVGDRVTITCRASHDISSYLAWYQHKPWKAPKLLIHAASILQSGVPSRFSGSGSGTEFTLTISSLQPEDFATYYCQDLNSYPLFGQGTRLEIKR
notes: full-length human IgG1/kappa made in HEK293E; heavy chain constant region with N297G; also called mAb R4A1-3A
B7: 12mer DQ2.5-glia-α2 peptide (free) (peptide)
peptide: PQPELPYPQPQL
notes: also called free peptide
B9: R2A1-8E hIgG1 (antibody, V domains shown)
VH: QVQLQQSGPGLVKPSQTLSLTCAISGDSVSSNSAAWNWIRQSPSRGLEWLGRTYYRSKWYNDYAVSVKSRITINPDTSKNQFSLQLNSVTPEDTAVYYCARDSSSGWHPYGMDVWGQGTTVTVSS
VL: DIQVTQSPSFLSASVGDRVTITCRASHDISSYLAWYQHKPGKAPKLLIHAASILQSGVPSRFSGSGSGTEFTLTISSLQPEDFATYYCQQLNSYPLLTFGGGTKVDIKR
notes: full-length human IgG1/kappa made in HEK293E; heavy chain constant region with N297G; also called mAb R2A1-8E

Assay [1] addresses T1, BSA (Bos taurus, UniProt P02769).
T1 construct: not specified; also called bovine serum albumin
The experiment in a line: ELISA, hIgG1, control well with BSA. As for the experimental part: FIG. 14. […] The peptides are annotated according to Sollid, L. M., et al., (Immunogenetics, 2012, 64(6): 455-460) (A). […] Error bars illustrate mean±SD of duplicates. […] HSA=human serum albumin; BSA=bovine serum albumin.
Assays were performed at RT with duplicate wells. Between each layer, the plates were washed 3× with PBST.

Assay [2] addresses B9. The experiment in a line: competition ELISA: 0.1 µg/ml hIgG1 pre-incubated with 33mer α-gliadin, then binding to plate-bound HLA-DQ2.5:DQ2.5-glia-α1a. The method, then:
(§1) FIG. 2. […] (C) Eight different HLA-DQ2.5:gluten peptide complexes and HLA-DQ2.5:CLIP2 were used in ELISA for specificity analysis (n=2). mAb 2.12.E11 was included to control pMHC capture levels.
(§2) 96-well MaxiSorp microtiter plates (Nunc) were coated overnight at 4° C. with NeutrAvidin (Avidity, 10 ug/ml in PBS), before blocking with 4% skim milk powder in PBS (w/v). Biotinylated pMHC was captured onto the NeutrAvidin. […] 0.2 μg/ml mAb 2.12.E11 [Viken, H. D., et al., 1995] was detected using polyclonal anti-mouse IgG Fc-ALP (Sigma, 1:2000). […] Assays were performed at RT with duplicate wells, except for single clone screenings with only one well per sample.
In general terms: An ELISA detects its analyte on a solid surface through an enzyme-linked reagent.

Assay [3] deals with B6. The assay is described as above. The method, then: as §1, §2
In assay [4] the target is B5. Described as above. As for the experimental part:
as §1, §2

Assay [5] concerns the target B9. The assay is described as follows: competition ELISA: 0.1 µg/ml hIgG1 pre-incubated with the competitor, then binding to plate-bound HLA-DQ2.5:DQ2.5-glia-α1a. As for the experimental part:
as §1, §2

Assay [6] concerns the target B6. The assay is described as above. The method, then: as §1, §2
Assay [7] concerns the target B5. Described as above. As for the experimental part: as §1, §2
The target of assay [8] is T1, BSA. The assay is described as follows: ELISA, hIgG1 (printed anti-glia1a_no106), control well with BSA.
Assay [9] deals with B3. The experiment in a line: competition ELISA, hIgG1 pre-incubated with competitor. The method, then:
as §1, §2

Assay [10] has as its target B2. The description is as above. As for the experimental part:
as §1, §2

Assay [11] concerns the target B7. The assay is described as above. As for the experimental part:
as §1, §2

T1 sequence (P02769 25-607 limits assumed): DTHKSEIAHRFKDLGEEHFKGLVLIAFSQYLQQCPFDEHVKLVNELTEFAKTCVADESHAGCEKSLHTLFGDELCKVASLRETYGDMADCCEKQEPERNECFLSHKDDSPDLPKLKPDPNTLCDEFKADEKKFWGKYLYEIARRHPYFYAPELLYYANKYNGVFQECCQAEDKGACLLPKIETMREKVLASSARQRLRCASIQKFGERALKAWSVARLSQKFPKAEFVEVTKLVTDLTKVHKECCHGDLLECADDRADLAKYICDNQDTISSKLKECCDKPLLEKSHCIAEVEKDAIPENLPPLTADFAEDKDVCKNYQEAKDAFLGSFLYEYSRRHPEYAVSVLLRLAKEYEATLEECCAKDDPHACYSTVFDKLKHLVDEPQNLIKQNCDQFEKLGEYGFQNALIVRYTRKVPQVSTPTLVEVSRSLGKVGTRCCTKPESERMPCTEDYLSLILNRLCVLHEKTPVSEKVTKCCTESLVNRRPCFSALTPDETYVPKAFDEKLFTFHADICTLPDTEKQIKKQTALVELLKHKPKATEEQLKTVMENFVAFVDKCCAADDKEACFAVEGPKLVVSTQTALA

B1: 220 hIgG1 (antibody, V domains shown)
VH: QVQLVESGAEVKKPGSSVKVSCKASGGTFSSYAISWVRQAPGQGLEWMGGIIPIFGTANYAQKFQGRATITADESTSTAYMELSSLRSEDTAVYYCARGRNTYCSGGSCYSPHFDYWGQGTLVTVSS
VL: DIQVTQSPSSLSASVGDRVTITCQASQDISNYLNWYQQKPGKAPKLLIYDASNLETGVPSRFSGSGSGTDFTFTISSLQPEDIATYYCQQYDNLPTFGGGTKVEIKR
notes: full-length human IgG1/kappa
As to B1, the binding result in assay [1] is reported as “no binding (tested: 0.5 µg/ml)”.

Turning to B2, the binding result in assay [2], in assay [3] and in assay [4] was “no binding (tested: 1 µM)” in each case.

B3: the binding result in [5], in [6] and in assay [7] was “no binding (tested: 1 µM)” each time.

B4: 206 hIgG1 (antibody, V domains shown)
VH: QVQLVQSGAEVKKPGSSVKVSCKASGGTFSSYAISWVRQAPGQGLEWMGGIIPIFGTANYAQKFQGRVTITADESTSTAYMELSSLRSEDTAVYYCARDVQRMGMDVWGQGTTVTVSS
VL: DIQMTQSPSSVSTSVGDRVTITCRASQDISNWLAWYQQKPGKAPKLLIYDSSTLQSGVPSRFSGSGSGTDFTLTISTLQPEDFATYYCQQFNSYPLTFGGGTKVDIKR
notes: full-length human IgG1/kappa
For the molecule B4, the binding result in [1] is reported as “no binding (tested: 0.5 µg/ml)”.

As for B5, the binding result in assay [8] is given as “no binding (tested: 0.5 µg/ml)”; in [9] it was “no binding (tested: 1 µM)”; in assay [10], “no binding (tested: 1 µM)”; in [11], “no binding (tested: 1 µM)”.

For B6, the binding result in assay [9], in assay [10] and in assay [11] was “no binding (tested: 1 µM)” in each case.

As to B7, the binding result in [5], in assay [6] and in assay [7] was “no binding (tested: 1 µM)” in each case.

B8: 228 hIgG1 (antibody, V domains shown)
VH: QVQLVQSGAEVKKPGSSVKVSCKASGGTFSSYAISWVRQAPGQGLEWMGGIIPIFGTANYAQKFQGRVTITADESTSTAYMELSSLRSEDTAVYYCARGQVLIWTYYYGMDVWGQGTTVTVSS
VL: DIRLTQSPSSLSASVGDRVTITCQASQDISNYLNWYQQKPGKAPKLLIYDASNLETGVPSRFSGSGSGTDFTFIISSLQPEDIATYYCQQYDNLPLTFGGGTKLEIKR
notes: full-length human IgG1/kappa
B8: the binding result in assay [1] is on record as “no binding (tested: 0.5 µg/ml)”.

Turning to B9, the binding result in [9], in [10] and in assay [11] was “no binding (tested: 1 µM)” in each case.
